This experiment addresses T1, ATM, phosphorylated (activated) (human, UniProt Q13315 2-3056, phosphorylated (activated state; site not given)).
T1 construct: Endogenous protein co-immunoprecipitated from PSC27 cell lysates; also called p-ATM
Put plainly: IP with p-TAK1 antibody from lysates of bleomycin-treated PSC27 cells, Western blot (FIG. 2). In general terms: In western blotting, separated proteins are transferred to a membrane and probed.

T1 sequence (Q13315 2-3056 limits assumed): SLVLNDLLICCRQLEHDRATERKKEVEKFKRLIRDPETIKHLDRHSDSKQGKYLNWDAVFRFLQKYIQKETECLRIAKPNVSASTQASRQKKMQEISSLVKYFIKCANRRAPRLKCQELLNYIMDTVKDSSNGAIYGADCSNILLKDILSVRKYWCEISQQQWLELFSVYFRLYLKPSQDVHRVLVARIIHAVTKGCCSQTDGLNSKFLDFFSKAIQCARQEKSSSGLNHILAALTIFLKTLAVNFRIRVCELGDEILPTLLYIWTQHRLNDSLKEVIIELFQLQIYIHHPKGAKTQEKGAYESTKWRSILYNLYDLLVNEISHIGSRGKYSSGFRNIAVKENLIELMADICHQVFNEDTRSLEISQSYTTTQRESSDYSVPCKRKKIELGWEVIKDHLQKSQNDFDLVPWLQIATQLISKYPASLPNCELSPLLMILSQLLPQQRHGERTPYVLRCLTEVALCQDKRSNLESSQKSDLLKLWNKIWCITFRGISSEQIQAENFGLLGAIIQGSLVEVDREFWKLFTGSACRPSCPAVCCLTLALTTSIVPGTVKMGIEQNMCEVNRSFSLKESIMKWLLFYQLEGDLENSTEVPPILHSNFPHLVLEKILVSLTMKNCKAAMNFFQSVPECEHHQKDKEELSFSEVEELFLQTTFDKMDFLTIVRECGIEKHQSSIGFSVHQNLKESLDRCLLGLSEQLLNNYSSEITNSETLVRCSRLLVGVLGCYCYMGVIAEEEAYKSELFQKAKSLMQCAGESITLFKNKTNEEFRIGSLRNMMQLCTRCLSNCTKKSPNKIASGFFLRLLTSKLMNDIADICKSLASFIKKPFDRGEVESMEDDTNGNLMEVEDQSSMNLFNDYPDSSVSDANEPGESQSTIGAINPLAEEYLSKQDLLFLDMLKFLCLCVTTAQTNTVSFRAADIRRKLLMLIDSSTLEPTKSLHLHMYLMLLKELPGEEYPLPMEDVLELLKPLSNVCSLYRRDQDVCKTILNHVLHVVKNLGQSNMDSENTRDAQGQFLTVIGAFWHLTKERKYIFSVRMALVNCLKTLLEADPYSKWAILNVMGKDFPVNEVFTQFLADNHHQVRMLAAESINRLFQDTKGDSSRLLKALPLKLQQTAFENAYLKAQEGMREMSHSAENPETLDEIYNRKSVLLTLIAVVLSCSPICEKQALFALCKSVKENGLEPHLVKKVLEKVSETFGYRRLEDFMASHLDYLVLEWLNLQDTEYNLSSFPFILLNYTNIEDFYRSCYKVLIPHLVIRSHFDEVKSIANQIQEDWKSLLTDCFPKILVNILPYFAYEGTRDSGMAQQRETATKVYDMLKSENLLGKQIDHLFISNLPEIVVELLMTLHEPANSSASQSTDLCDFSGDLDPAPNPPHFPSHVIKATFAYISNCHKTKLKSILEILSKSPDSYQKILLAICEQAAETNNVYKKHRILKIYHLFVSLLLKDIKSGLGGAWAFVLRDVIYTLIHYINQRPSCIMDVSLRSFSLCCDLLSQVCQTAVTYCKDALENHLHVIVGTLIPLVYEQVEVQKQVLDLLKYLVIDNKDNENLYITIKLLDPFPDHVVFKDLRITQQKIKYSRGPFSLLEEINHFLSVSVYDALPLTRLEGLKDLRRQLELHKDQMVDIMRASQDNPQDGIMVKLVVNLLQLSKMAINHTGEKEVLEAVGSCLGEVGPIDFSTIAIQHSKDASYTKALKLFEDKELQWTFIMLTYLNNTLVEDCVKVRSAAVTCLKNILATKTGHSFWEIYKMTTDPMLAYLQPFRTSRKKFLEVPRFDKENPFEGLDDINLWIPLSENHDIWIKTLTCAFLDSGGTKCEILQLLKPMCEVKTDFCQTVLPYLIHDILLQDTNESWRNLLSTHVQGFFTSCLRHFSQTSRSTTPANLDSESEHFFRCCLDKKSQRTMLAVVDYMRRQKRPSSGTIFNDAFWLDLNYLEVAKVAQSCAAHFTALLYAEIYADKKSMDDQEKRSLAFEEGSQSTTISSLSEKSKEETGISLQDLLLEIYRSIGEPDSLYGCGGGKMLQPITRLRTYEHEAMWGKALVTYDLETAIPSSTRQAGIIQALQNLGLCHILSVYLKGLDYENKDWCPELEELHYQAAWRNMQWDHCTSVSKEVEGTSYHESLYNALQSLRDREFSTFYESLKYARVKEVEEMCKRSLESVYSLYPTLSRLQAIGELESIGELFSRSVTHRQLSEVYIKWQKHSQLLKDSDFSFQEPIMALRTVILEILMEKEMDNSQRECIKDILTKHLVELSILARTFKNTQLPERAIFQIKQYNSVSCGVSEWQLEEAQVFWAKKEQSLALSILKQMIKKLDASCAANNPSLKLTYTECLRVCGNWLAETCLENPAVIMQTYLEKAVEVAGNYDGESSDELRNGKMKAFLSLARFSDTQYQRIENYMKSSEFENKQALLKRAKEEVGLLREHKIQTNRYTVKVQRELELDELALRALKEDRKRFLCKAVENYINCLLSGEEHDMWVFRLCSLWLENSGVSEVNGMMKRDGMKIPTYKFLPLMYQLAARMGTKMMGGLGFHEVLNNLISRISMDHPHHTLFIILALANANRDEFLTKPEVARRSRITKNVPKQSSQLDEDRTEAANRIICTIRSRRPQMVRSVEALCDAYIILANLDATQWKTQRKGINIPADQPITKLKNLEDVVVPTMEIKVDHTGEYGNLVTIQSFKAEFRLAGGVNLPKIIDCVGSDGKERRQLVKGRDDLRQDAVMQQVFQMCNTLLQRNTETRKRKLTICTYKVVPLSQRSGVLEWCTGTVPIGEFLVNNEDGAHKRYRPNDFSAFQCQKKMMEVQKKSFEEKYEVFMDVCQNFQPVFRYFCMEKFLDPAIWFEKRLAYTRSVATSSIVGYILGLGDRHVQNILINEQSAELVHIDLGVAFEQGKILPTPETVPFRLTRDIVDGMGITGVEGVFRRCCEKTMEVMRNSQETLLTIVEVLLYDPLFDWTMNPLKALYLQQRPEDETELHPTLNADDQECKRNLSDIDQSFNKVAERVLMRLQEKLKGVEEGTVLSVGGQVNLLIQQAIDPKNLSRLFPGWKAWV

B1: Transforming growth factor kinase 1 (TAK1), phosphorylated (activated) (enzyme, human, UniProt O43318 1-606, looked up)
chain: MSTASAASSSSSSSAGEMIEAPSQVLNFEEIDYKEIEVEEVVGRGAFGVVCKAKWRAKDVAIKQIESESERKAFIVELRQLSRVNHPNIVKLYGACLNPVCLVMEYAEGGSLYNVLHGAEPLPYYTAAHAMSWCLQCSQGVAYLHSMQPKALIHRDLKPPNLLLVAGGTVLKICDFGTACDIQTHMTNNKGSAAWMAPEVFEGSNYSEKCDVFSWGIILWEVITRRKPFDEIGGPAFRIMWAVHNGTRPPLIKNLPKPIESLMTRCWSKDPSQRPSMEEIVKIMTHLMRYFPGADEPLQYPCQYSDEGQSNSATSTGSFMDIASTNTSNKSDTNMEQVPATNDTIKRLESKLLKNQAKQQSESGRLSLGASRGSSVESLPPTSEGKRMSADMSEIEARIAATTAYSKPKRGHRKTASFGNILDVPEIVISGNGQPRRRSIQDLTVTGTEPGQVSSRSSSPSVRMITTSGPTSEKPTRSHPWTPDDSTDTNGSDNSIPMAYLTLDHQLQPLAPCPNSKESMAVFEQHCKMAQEYMKVQTEIALLLQRKQELVAELDQDEKDQQNTSRLVQEHKKLLDENKSLSTYYQQCKKQLEVIRSQQQKRQGTS
modifications: phosphorylated (activated state; site not given)
notes: Endogenous protein immunoprecipitated with a p-TAK1 antibody from PSC27 cell lysates; also called p-TAK1
As to B1, the binding result is given as “no binding”.

The values are drawn from patent publication US20210030836A1 (SHANGHAI INSTITUTE OF NUTRITION AND HEALTH CHINESE ACADEMY …, published 2021).
